B1: Codanin1 C-terminus (amino acids 1005-1227), labeled with Alexa Fluor 488 (domain or fragment, human, UniProt Q8IWY9 1005-1227, looked up)
chain: AARGERRGCSRACEHHAPLPSHLISEIKDVLSLAVGPRDPDEGVSPEHLEQLLGQLGQTLRCRQFLCPPAEQHLAKCSVELASLLVADQIPILGPPAQYRLERGQARRLLHMLLSLWKEDFQGPVPLQLLLSPRNVGLLADTRPREWDLLLFLLRELVEKGLMGRMEIEACLGSLHQAQWPGDFAEELATLSNLFLAEPHLPEPQLRACELVQPNRGTVLAQS
modifications: Alexa Fluor 488 covalently attached (carboxylic acid, 2,3,5,6-tetrafluorophenyl ester); site not stated; degree of labeling over 90%
notes: Codanin-1 (CDAN1), human, amino acids 1005-1227, codon-optimized for bacterial expression; Same protein as m2, with the dye; also called fluorescently labeled Codanin1_(Cterm); Codanin1_(Cterm) Alexa Fluor 488
B2: Codanin1 C-terminus (amino acids 1005-1227), bacterial (domain or fragment, human, UniProt Q8IWY9 1005-1227, looked up)
chain: AARGERRGCSRACEHHAPLPSHLISEIKDVLSLAVGPRDPDEGVSPEHLEQLLGQLGQTLRCRQFLCPPAEQHLAKCSVELASLLVADQIPILGPPAQYRLERGQARRLLHMLLSLWKEDFQGPVPLQLLLSPRNVGLLADTRPREWDLLLFLLRELVEKGLMGRMEIEACLGSLHQAQWPGDFAEELATLSNLFLAEPHLPEPQLRACELVQPNRGTVLAQS
notes: Codanin-1 (CDAN1), human, amino acids 1005-1227, codon-optimized for bacterial expression; Eluted from the Im7 column by cleavage with His-tagged Ulp1; plasmid pl21 (TriAltus); Anticipated mass is printed as 25 kDa; also called C-terminal part of Codanin1
B3: CDAN1-interacting nuclease 1 (CDIN1), full length, bacterial (natural protein, human, UniProt Q9Y2V0 1-281, looked up)
chain: MILTKAQYDEIAQCLVSVPPTRQSLRKLKQRFPSQSQATLLSIFSQEYQKHIKRTHAKHHTSEAIESYYQRYLNGVVKNGAAPVLLDLANEVDYAPSLMARLILERFLQEHEETPPSKSIINSMLRDPSQIPDGVLANQVYQCIVNDCCYGPLVDCIKHAIGHEHEVLLRDLLLEKNLSFLDEDQLRAKGYDKTPDFILQVPVAVEGHIIHWIESKASFGDECSHHAYLHDQFWSYWNRFGPGLVIYWYGFIQELDCNRERGILLKACFPTNIVTLCHSIA
notes: CDIN1 (C15orf41), human, full length, 281 amino acids; Eluted from the Im7 column by cleavage with His-tagged Ulp1; plasmid pl21 (TriAltus); The anticipated homodimer mass is printed as 67 kDa; Alone in solution it is mainly a homodimer; also called C15orf41

For data set [1], the target named is B3. The data set can be described thus: MST; 75 nM Alexa Fluor 488-labeled Codanin1_(Cterm) with 0-5 uM CDIN1; 20 mM Tris/HCl, 150 mM NaCl, 5% glycerol, pH 8.0; 25 °C; Hill equation fit; apparent KD. The note with it: both partners purified.
The target of data set [2] is B3. The data set can be described thus: ITC; Codanin1_(Cterm) (110 uM) titrated into CDIN1 (11 uM) in the cell; 15 °C; 20 mM Tris/HCl, 150 mM NaCl, 5% glycerol, pH 8.0; one-site binding model. The note with it: both partners purified.
The target of data set [3] is B1. Put plainly: native gel or EMSA; 1.25 uM Alexa Fluor 488-labeled Codanin1_(Cterm) with 0-20 uM CDIN1 (twofold dilutions); 20 mM Tris/HCl, 150 mM NaCl, 5% glycerol, pH 8.0; 15 min at room temperature; native 10% PAGE, 0.5x TBE, 4 °C. The note with it: both partners purified. (In general: In EMSA bound probe runs differently from free probe, usually more slowly.)
Data set [4] addresses B2. Put plainly: AUC; sedimentation velocity, 20 °C, 50 000 rpm; 24 uM CDIN1, 24 uM Codanin1_(Cterm), or 1:1 complex at 12 uM each; 20 mM Tris/HCl, 150 mM NaCl, pH 8.0. The note with it: both partners purified.
Data set [5] deals with the molecule itself. Put plainly: SEC-MALS; CDIN1 (2 mg/mL), Codanin1_(Cterm) (2 mg/mL) or the 1:1 complex; Zenix SEC 300 column; 20 mM Tris/HCl, 150 mM NaCl, pH 8.0. Background: SEC sorts molecules by how far they enter the pores of the column.

Take B1: the Kd in data set [1] came out at 53 ± 8 nM.
As for B2, the Kd in data set [2] amounted to 20 ± 4 nM.
As usually defined, the stoichiometry N is the number of molecules, sites or subunits per partner or assembly. With B3, the “stoichiometry N” value in data set [3] was 1 CDIN1:Codanin1_(Cterm); in data set [4], 1 CDIN1:Codanin1_(Cterm); in data set [5], 2.

The values are drawn from publication PMC13370696, “Anemia‐associated mutations disrupt the CDIN1‐Codanin1 complex in inherited congenital dyserythropoietic anemia I (CDA‐I) disease” (The Febs Journal, 2026).
